Biological target: AAV8 capsids (adeno-associated virus 8 (AAV8))
Assay: BLI (ForteBio), control ligand on sensor, AAV8 capsids 5x10^11 particles/mL, response after 4000 s

Non-binding ligand (control) (designed binder)
Response: 0.03

— patent publication US20240026344A1
